Reference: PMC6302171

Biological target: GFP-profilin-1 (UniProt P07737)
Experiment: co-immunoprecipitation, densitometric analysis of immunoblots
Details: HEK293 cells; cell lysate (1 mg); three independent experiments; parent: est. 6.8; read off a plot

Chain of GFP-profilin-1 (P07737 2-140): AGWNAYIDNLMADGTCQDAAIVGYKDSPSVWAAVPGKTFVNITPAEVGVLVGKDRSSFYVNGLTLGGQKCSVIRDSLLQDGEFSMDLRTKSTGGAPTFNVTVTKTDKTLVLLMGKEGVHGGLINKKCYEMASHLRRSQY
Chain of 3×FLAG-CLIC4 WT, Q9Y696 C35A (Q9Y696 whole entry C35A): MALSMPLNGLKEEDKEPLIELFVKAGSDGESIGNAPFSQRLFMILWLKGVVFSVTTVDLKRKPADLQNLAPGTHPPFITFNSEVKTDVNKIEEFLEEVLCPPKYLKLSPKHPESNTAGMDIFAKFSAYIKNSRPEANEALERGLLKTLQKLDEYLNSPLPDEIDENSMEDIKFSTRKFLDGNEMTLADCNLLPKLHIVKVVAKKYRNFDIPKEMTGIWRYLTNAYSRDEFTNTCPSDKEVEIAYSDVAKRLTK

response: 2 A.U.
Substance: 3×FLAG-CLIC4 WT, Q9Y696 C35A
